Assays:
[1] = target: T1, HLA-A*24:02 on T2-A24 cells (human, UniProt P04439-2 25-302 at identity 0.92)); test: MHC class I expression stabilization test on T2-A24 cells as in Example 2, flow cytometry
T1 construct: whole, on cells; Empty MHC class I on the cell surface that is stabilized by an added peptide; the text gives HLA-A*24:02
T1 MHC heavy: not shown

HLA-A*02:01 on T2 cells = target: T2, HLA-A*02:01 on T2 cells (human, UniProt P04439 25-302 at identity 0.94)); test: MHC class I expression stabilization test on T2 cells as in Example 2, flow cytometry
T2 construct: whole, on cells; Empty MHC class I on the cell surface that is stabilized by an added peptide; the text gives HLA-A*02:01
T2 MHC heavy: not shown

B1: Peptide represented by SEQ ID No: 11, OR7C1 V126I (117-126) (peptide)
peptide: VMAYDRFVAI
notes: Synthetic peptide, Fmoc method
[1]
  mean fluorescence intensity (MFI) solvent ratio: 3.8 ratio to solvent
HLA-A*02:01 on T2 cells
  mean fluorescence intensity (MFI) solvent ratio: 2.2 ratio to solvent
